According to patent publication US8557762 (CHILDREN S HOSPITAL OF PHILADELPHIA, dated 2013):
Where “and” joins values, the source holds several entries; their conditions need not be identical. Identical values can stand only once. Like-named read-outs stand apart in the source and are kept apart here.

B1: purified enzymatic subunit of pseutarin C (pt-FXa) (enzyme)
chain 1: ANSLVEEFKSGNIERECIEERCSKEEAREVFEDDEKTETFWNVYVDGDQCSSNPCHYRGICKDGIGSYTCTCLSGYEGKNCERVLYKSCRVDNGNCWHFCKSVQNDIQCSCAEGYLLGEDGHSCVAGGNFSCGRNIKTRNK
chain 2: IVNGMDCKLGECPWQAALVDDKKGVFCGGTILSPIYVLTAAHCINETETISVVVGEIDRSRAETGPLLSVDKVYVHKKFVPPKKSQEFYEKFDLVSYDYDIAIIQMKTPIQFSENVVPACLPTADFANQVLMKQDFGIVSGFGGIFERGPNSKTLKVLKVPYVDRHTCMLSSNFPITPTMFCAGYDTLPQDACQGDSGGPHITAYRDTHFITGIVSWGEGCARKGRYGIYTKLSKFIPWIKRIMRQKLPSTESSTGRL
B2: human factor Xa (membrane-bound human FXa) (enzyme)
chain 1: ANSFLEEMKKGHLERECMEETCSYEEAREVFEDSDKTNEFWNKYKDGDQCETSPCQNQGKCKDGLGEYTCTCLEGFEGKNCELFTRKLCSLDNGDCDQFCHEEQNSVVCSCARGYTLADNGKACIPTGPYPCGKQTLER
chain 2: IVGGQECKDGECPWQALLINEENEGFCGGTILSEFYILTAAHCLYQAKRFKVRVGDRNTEQEEGGEAVHEVEVVIKHNRFTKETYDFDIAVLRLKTPITFRMNVAPACLPERDWAESTLMTQKTGIVSGFGRTHEKGRQSTRLKMLEVPYVDRNSCKLSSSFIITQNMFCAGYDTKQEDACQGDSGGPHVTRFKDTYFVTGIVSWGEGCARKGKYGIYTKVTAFLKWIDRSMKTRGLPKAKSHAPEVITSSPLK
notes: also called rFXa; human rFXa

Key:
[1] = target: T1, recombinant venom-derived factor V from Pseudonaja textilis (pt-rFV) (Pseudonaja textilis, UniProt Q7SZN0 31-1460)
T1 sequence: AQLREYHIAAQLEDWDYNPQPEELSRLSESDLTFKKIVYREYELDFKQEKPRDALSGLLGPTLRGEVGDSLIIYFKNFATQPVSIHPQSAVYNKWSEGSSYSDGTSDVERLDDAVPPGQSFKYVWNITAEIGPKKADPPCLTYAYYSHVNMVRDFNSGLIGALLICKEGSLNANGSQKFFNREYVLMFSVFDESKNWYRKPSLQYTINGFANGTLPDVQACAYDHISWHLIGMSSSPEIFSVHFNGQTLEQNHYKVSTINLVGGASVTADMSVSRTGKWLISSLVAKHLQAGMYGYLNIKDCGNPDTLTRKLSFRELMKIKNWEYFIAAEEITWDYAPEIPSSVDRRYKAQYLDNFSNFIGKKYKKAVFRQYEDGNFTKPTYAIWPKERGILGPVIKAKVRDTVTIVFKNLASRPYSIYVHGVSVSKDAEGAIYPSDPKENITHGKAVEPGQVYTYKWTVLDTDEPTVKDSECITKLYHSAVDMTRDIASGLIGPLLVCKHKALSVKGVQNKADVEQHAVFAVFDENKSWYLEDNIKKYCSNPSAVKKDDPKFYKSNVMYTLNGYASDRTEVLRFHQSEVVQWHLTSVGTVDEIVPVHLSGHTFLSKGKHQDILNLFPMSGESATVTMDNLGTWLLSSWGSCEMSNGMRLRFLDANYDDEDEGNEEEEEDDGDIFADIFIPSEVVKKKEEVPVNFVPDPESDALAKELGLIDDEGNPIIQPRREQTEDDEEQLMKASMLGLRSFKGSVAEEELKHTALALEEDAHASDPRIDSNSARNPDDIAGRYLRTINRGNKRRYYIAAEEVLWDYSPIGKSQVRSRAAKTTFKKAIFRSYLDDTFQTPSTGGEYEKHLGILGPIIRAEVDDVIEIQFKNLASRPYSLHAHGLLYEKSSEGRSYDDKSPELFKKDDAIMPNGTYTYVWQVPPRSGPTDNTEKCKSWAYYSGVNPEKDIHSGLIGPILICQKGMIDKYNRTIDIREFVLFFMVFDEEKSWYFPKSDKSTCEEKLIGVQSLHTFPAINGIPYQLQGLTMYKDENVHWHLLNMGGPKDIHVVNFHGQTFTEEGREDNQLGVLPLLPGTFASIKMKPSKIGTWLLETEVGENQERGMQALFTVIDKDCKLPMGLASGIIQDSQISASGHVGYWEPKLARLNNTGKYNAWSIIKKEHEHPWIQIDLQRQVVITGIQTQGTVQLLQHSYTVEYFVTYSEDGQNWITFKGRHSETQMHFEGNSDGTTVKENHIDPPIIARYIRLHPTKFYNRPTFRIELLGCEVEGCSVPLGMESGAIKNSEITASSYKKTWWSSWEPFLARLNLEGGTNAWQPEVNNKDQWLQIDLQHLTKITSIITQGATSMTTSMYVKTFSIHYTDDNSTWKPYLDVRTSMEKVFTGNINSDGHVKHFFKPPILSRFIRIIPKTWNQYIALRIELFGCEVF

[2] = target: T2, pt-rFVa (pt-rFV processed by thrombin) (Pseudonaja textilis, UniProt Q7SZN0 31-772; Q7SZN0 819-1460)
T2 sequence (heavy): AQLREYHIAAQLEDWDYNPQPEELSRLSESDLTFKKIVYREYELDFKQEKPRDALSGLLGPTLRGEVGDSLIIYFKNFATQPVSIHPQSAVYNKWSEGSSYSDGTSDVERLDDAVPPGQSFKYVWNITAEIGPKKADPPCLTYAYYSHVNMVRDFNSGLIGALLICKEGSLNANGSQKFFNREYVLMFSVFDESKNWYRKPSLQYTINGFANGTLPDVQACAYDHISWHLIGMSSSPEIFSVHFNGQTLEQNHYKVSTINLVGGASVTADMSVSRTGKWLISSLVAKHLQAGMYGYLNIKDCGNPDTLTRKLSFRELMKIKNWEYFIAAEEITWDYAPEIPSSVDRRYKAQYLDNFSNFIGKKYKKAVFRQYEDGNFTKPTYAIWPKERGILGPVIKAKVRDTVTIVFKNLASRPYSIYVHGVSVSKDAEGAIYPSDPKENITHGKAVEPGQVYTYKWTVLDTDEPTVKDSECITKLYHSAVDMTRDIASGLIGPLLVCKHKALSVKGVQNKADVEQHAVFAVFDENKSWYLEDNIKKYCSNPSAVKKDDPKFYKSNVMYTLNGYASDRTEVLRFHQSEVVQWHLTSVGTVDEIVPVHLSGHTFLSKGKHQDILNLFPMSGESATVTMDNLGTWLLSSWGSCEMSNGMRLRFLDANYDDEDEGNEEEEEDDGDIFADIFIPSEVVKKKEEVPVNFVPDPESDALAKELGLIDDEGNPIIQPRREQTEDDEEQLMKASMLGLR
T2 sequence (light): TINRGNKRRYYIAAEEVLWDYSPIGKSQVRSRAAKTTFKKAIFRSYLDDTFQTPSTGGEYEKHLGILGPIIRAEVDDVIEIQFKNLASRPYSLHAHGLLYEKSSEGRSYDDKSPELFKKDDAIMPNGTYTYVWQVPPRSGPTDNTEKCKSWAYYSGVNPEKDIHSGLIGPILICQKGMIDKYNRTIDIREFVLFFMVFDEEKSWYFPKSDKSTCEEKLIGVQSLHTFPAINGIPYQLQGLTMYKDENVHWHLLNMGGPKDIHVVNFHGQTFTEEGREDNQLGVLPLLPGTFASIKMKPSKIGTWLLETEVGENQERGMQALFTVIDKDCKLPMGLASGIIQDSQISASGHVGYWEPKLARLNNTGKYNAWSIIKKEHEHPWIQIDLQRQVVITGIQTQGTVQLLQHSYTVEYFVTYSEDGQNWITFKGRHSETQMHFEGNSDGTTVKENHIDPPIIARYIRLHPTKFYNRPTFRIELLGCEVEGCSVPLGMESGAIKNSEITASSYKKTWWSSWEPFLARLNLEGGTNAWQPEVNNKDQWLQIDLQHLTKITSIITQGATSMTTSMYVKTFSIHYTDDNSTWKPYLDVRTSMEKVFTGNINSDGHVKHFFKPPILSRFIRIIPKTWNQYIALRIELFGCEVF

[3] = target: hFV-810 (constitutively active partial B-domainless form of human FV) (human, UniProt P12259 29-2224)
[4] = target: T1, recombinant venom-derived factor V from …; experiment: fluorescent binding measurements, membrane-bound human FXa (data not shown)
[5] = target: T2, pt-rFVa (pt-rFV processed by thrombin); experiment: as above

Sequence of hFV-810 (constitutively active partial B-domainless form of human FV) (P12259 other isoform, or with tags, fused parts or gaps limits assumed): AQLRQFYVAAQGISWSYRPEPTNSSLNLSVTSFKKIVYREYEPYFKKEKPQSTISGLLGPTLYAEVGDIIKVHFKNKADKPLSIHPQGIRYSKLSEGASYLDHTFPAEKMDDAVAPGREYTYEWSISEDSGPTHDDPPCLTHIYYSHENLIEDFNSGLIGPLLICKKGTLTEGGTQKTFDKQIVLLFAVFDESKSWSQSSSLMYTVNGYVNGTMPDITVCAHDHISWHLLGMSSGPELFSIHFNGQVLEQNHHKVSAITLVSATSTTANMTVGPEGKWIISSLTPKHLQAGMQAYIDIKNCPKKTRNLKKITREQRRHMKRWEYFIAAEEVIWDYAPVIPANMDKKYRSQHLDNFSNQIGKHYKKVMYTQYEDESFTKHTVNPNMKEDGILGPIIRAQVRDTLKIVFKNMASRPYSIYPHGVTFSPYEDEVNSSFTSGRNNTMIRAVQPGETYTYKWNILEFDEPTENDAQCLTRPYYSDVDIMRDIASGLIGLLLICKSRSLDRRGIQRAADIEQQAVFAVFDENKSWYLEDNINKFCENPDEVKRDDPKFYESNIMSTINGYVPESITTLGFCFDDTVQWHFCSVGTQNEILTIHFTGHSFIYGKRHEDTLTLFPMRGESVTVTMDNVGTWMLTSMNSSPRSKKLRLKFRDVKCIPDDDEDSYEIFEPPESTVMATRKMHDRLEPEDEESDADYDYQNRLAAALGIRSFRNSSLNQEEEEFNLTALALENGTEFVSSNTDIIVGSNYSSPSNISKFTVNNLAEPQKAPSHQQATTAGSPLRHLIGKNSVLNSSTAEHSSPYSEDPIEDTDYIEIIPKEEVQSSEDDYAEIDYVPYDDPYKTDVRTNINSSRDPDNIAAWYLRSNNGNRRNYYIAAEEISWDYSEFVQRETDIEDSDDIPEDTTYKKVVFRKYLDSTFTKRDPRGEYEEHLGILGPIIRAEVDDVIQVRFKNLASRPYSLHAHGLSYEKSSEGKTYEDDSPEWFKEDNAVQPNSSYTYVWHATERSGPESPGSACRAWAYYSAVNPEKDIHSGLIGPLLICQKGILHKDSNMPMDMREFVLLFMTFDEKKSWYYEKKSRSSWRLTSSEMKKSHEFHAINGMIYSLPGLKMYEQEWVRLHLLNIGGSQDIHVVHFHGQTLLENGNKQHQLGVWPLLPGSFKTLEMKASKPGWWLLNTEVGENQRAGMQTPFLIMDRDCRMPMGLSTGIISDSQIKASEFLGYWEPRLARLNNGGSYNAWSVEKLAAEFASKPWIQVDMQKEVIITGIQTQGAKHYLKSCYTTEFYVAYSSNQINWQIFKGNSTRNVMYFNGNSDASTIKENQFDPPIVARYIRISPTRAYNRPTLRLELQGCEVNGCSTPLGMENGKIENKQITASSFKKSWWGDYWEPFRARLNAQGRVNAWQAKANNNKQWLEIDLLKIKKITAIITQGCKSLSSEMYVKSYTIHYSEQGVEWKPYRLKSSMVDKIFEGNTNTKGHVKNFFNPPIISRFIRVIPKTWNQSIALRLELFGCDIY

Binder	Kd [1]	Kd [2]	Kd [3]	Kd [4]	Kd [5]
B1	3.06 nM and 8.08 nM	3.84 nM and 7.54 nM	3.76 nM		
B2				> 400 nM	> 400 nM
